The text below walks through data of PMC9160021, “Artificial intelligence-assisted cryoEM structure of Bfr2-Lcp5 complex observed in the yeast small subunit processome” (Communications Biology, 2022).

B1: Bfr2 (natural protein, UniProt Q06631 1-534, looked up)
chain: MEKSLADQISDIAIKPVNKDFDIEDEENASLFQHNEKNGESDLSDYGNSNTEETKKAHYLEVEKSKLRAEKGLELNDPKYTGVKGSRQALYEEVSENEDEEEEEEEEEEKEEDALSFRTDSEDEEVEIDEEESDADGGETEEAQQKRHALSKLIQQETKQAINKLSQSVQRDASKGYSILQQTKLFDNIIDLRIKLQKAVIAANKLPLTTESWEEAKMDDSEETKRLLKENEKLFNNLFNRLINFRIKFQLGDHITQNEEVAKHKLSKKRSLKELYQETNSLDSELKEYRTAVLNKWSTKVSSASGNAALSSNKFKAINLPADVQVENQLSDMSRLMKRTKLNRRNITPLYFQKDCANGRLPELISPVVKDSVDDNENSDDGLDIPKNYDPRRKDNNAIDITENPYVFDDEDFYRVLLNDLIDKKISNAHNSESAAITITSTNARSNNKLKKNIDTKASKGRKLNYSVQDPIANYEAPITSGYKWSDDQIDEFFAGLLGQRVNFNENEDEEQHARIENDEELEAVKNDDIQIFG
notes: Bfr2, S. cerevisiae, endogenous in the Δpih1-90S; the whole protein is 1–534; Endogenous protein of the 90S particle; only part of it is modelled in the map

Holding throughout (conditions): both partners purified
The target in one test is T1, Enp2 (S. cerevisiae (endogenous in yeast …, UniProt P48234 1-707)).
T1 construct: Enp2, S. cerevisiae, endogenous in the Δpih1-90S; its β-propeller is named as the part that Bfr2 touches; Endogenous protein of the 90S particle
T1 sequence (looked up): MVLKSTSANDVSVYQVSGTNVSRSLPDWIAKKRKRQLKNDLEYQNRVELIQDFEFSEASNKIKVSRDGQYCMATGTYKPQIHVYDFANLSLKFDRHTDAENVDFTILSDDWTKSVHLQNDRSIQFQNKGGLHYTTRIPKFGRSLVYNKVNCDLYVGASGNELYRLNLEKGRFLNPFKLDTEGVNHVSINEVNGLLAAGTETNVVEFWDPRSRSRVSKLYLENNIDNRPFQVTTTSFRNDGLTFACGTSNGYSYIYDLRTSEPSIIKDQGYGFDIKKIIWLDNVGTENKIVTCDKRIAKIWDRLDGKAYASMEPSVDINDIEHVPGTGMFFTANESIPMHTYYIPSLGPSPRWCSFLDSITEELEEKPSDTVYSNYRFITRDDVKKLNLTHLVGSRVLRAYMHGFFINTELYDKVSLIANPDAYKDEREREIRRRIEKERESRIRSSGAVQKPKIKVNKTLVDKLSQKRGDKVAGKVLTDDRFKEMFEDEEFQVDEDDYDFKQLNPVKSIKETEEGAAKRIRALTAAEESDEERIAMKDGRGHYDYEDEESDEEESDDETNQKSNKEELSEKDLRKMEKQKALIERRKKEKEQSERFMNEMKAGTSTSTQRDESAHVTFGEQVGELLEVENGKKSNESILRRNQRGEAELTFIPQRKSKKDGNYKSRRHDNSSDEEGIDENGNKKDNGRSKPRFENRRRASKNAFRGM
Kind of test: cryo-EM structure; Δpih1-90S purified from yeast by tandem affinity (Pwp2-TAP on IgG Sepharose, Kre33-TwinStrep on Strep-Tactin); 3.99 Å overall, 5.04 Å for the head (5' domain) where Bfr2-Lcp5 lies; Bfr2-Lcp5 model placed with the aid of AlphaFold.

The next test deals with T2, MBP-Bfr2(266–432) (S. cerevisiae (genomic DNA of BY4741 …, UniProt Q06631 266-432)).
T2 construct: source: E. coli Rosetta(DE3); in lysate (pull-down in cell) and purified (amylose, monoQ, gel filtration)
T2 sequence (looked up): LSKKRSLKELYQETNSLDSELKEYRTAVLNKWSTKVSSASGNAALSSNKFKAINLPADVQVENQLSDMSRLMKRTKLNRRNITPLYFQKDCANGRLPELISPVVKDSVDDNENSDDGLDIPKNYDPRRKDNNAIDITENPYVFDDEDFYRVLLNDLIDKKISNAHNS
Put plainly: pull-down; in vitro: purified MBP, MBP-Bfr2(360–432) or MBP-Bfr2(266–432) as bait with purified His-Lcp5(1–160).

For the test “Bfr2”, the target named is B1. Put plainly: cryo-EM structure; Δpih1-90S purified from yeast by tandem affinity (Pwp2-TAP on IgG Sepharose, Kre33-TwinStrep on Strep-Tactin); 3.99 Å overall, 5.04 Å for the head (5' domain) where Bfr2-Lcp5 lies; Bfr2-Lcp5 model placed with the aid of AlphaFold.

In the case of B1, the binding result with Enp2 is on record as “binds”.

B2: His-Lcp5(1–160) (domain or fragment, S. cerevisiae, UniProt P40079 1-160, looked up)
chain: MSELNALLKDINGSLTATSESLERLSGIYSNSATDEIPESNQLHEHLFYDAKKPAEKVSLLSLKNGSMLGYINSLLMLIGNRLDDECKDPSAMDARERSIQHRVVLERGVKPLEKKLAYQLDKLTRAYVKMEKEYKDAEKRALEKSTLVNHSGNDDSEDD
notes: Lcp5, S. cerevisiae, residues 1–160, polyhistidine tagged; The methods describe only the cloning of the untagged Lcp5(1–160); also called polyhistidine tagged Lcp5 fragment 1–160; source: bacteria expression host, purified
Consider B2, for which the binding result with MBP-Bfr2(266–432) was “binds”.

B3: Lcp5 (natural protein, UniProt P40079 1-357, looked up)
chain: MSELNALLKDINGSLTATSESLERLSGIYSNSATDEIPESNQLHEHLFYDAKKPAEKVSLLSLKNGSMLGYINSLLMLIGNRLDDECKDPSAMDARERSIQHRVVLERGVKPLEKKLAYQLDKLTRAYVKMEKEYKDAEKRALEKSTLVNHSGNDDSEDDESSEDEIAYRPNTSGIINTNKKSSAYRVEETAKQENGEENDDNETGVYKPPKITAVLPPQQTHFEDRFDAREHKDRSNKSRMQAMEEYIRESSDQPDWSASIGADIVNHGRGGIKSLRDTEKERRVTSFEEDNFTRLNITNKAEKRKQKQRERNARMNVIGGEDFGIFSSKRKLEDSTSRRGAKKTRSAWDRAQRRL
notes: Lcp5, S. cerevisiae, endogenous in the Δpih1-90S; the newly modelled N-terminal domain holds residues 1–141; Endogenous protein of the 90S particle; only part of it is modelled in the map
With B3, the binding result in the test with Bfr2 is listed as “binds”.
